B1: library; numbered along this chain (parent)
chain: MAAAAAAAAEQQSSNGPVKKSMREKAVERRSVNKEHNSNFKAGYIPIDEDRLHKTGLRGRKGNLAICVIILLFILAVINLIITLVIWAVIRIGPNGCDSMEFHESGLLRFKQVSDMGVIHPLYKSTVGGRRNENLVITGNNQPIVFQQGTTKLSVENNKTSITSDIGMQFFDPRTQNILFSTDYETHEFHLPSGVKSLNVQKASTERITSNATSDLNIKVDGRAIVRGNEGVFIMGKTIEFHMGGNMELKAENSIILNGSVMVSTTRLPSSSSGDQLGSGDWVRYKLCMCADGTLFKVQVTSQNMGCQISDNPCGNTH

Variants of: B1
Experiment: SGCB cell-surface expression functional score (HA stain, bin4 vs bin1, normalised to synonymous) (log10 ratio); higher = more cell-surface SGCB (functional)
How it was run: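 HEK293 cells stably expressing alpha-, gamma- and delta-sarcoglycan received codon-saturation libraries of HA-tagged, YFP-fused human beta-sarcoglycan by lentiviral transduction at MOI <0.1, performed in duplicate. Cells positive for YFP were sorted after 72 hours and cultured for 5–7 days, then stained on ice with Alexa Fluor 647 anti-HA and fixed. Fixed cells were sorted into four 5% intensity bins and amplicon-sequenced, and the log ratio of highest-bin to lowest-bin variant frequency, as a median over codons and transductions, gives the functional score. Per section, synonymous variants were scaled to mean 0, SD 0.5.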

SGCB cell-surface expression functional score (log10), by site and new letter:
L153: C -0.34; Q -1.65; G -0.65; R -1.23; P -1.07; H -1.03; A -1.08; N -1.69; M 0.18; W -1.15; D -1.44; Y -1.24; T -0.99; V -0.65; I -0.17; K -1.12; E -0.79; S -1.03; F -0.26
I166: T 0.36; A -0.49; Q -0.21; M -0.16; C 0.54; G -0.41; N -0.78; S -0.76; E 0.76; K -0.2; R -0.29; H -0.1; W -2.63; Y 0.18; D -1.32; L -0.38; V 0.13; F 0.57; P -1.11
S161: A 0.29; P -1.15; G 0.01; K -0.33; I -0.06; F -0.36; Q 0.14; H -0.26; R 0.02; V -0.12; T 0.3; L 0.12; W -0.98; M -0.34; D -0.8; Y -0.18; C -0.11; E 0.42; N -0.84
T160: N -0.8; L 0.17; S -0.5; D -1.29; C -0.14; E -1.3; G -1.29; W -0.95; H -0.01; R -1.29; P -1.28; K -2.03; Q -1.26; V 0.03; I 0.64; F -0.15; A -0.29; M -1.02; Y -1.13
V155: E -0.74; N -1.38; H -1.51; A -0.56; S -1.06; K -1.53; T -1.02; F -0.64; P -1.4; Y -1.9; I 0.29; M 0.02; Q -1.48; L 0.18; R -1.45; G -1.18; C -0.76; D -0.85; W -1.19
T151: G -0.94; P -0.64; D -1.17; V -0.15; C -0.22; K -0.7; L -1.22; W -1.19; M -1.13; Q -0.98; H -1.24; I -0.82; R -1.06; S 0.27; F -1; N -0.56; E -1.31; Y -1
K159: S -0.32; I 0; Q -0.09; P -1.13; E -0.7; F -0.25; T -0.28; G 0.43; V -0.09; A -0.02; R -0.48; C -0.02; L 0.31; M -0.28; N -0.03; W -0.05; D -1.02; H -0.05; Y -0.79
D165: H 0.61; Q -1.09; I 0.19; Y -0.38; K -0.75; E 0.02; N -0.35; A 0.17; S -0.01; F 0.07; R 0.2; L -0.58; P 0.58; G -0.11; T 0.73; V 0.5
N158: I -0.21; T 0.18; H -0.2; W -0.42; Y -0.05; L -0.11; E -0.02; K -0.26; A -0.1; S 0.15; C 0; G -0.06; F -0.06; Q 0.06; V -0.44; P -0.76; M -0.12; D 0.02; R -0.6
K152: T -0.04; D -0.66; F 0.02; I 0.14; G -0.57; R -0.22; L -0.53; Q -0.46; P -0.94; E -0.38; V 0.52; W 0.3; A 0; H -0.48; N -0.11; Y -0.59; S -0.23; C 0.03; M -0.19
S164: T -0.69; R -0.91; I -1.26; Y -1.05; L -1.91; G -0.13; Q -0.96; H -1.56; N -0.99; E -0.83; K -0.97; V -0.34; F -1.08; W -2.58; D 0.11; P -1.87; C -0.79; A -0.39; M -2.05
M168: P -0.24; F -0.59; A -1.55; L 0.01; E -0.66; D -1.62; S -1.21; I -0.24; K -0.76; N -2.1; Q -1.74; R -0.79; V -0.11; H -1.85; T -1.24; C -0.84; G -1.9
G167: V -0.99; F -1.3; Q -0.39; S -1.64; K -0.34; W -1.16; L -0.9; R -1.14; P -1.01; N -1.11; C -2.06; I -2.1; A -0.48; H -0.66; T -1.32; D -1.19; E -1.93; M -1.61; Y -1.42
T163: Q 0.21; S -1.01; Y 0.58; V 0.25; L -0.56; M -1.06; F -0.27; R -0.05; K -0.3; P -1.3; E -0.38; I 0.32; H -0.2; A -0.32; D -1.08; G -1.5; C -0.72
E156: G -0.23; D -0.04; L -0.43; Q 0.19; V -0.3; N -0.23; I -0.63; W -0.4; K -0.6; H -0.39; F -0.1; R -0.38; A -0.03; Y -0.38; T -0.18; S -0.22; M -0.14; P -0.84; C 0.01
N157: I -0.06; H 0.06; W 0.34; F -0.21; C 0.02; A 0.08; V 0.48; Q 0.38; E -0.18; T -0.05; G 0.52; S -0.08; P 0.01; M 0.06; L 0.19; Y 0.04; K -0.19; D -0.02; R 0.01
S154: L -0.22; M 0.54; K 0.55; G -0.24; I 0; C 0.11; T -0.08; Q -0.7; Y -0.16; F -0.49; P -1.03; R 0.01; V 0.16; H -0.24; A 0.26; D 0.2; N -0.3; E -0.33; W -0.21
I162: L -0.6; E -0.89; P -1.25; N -0.83; F -0.81; G -1.34; M 0.23; H -1.02; R -1.34; T -1.07; S -1.09; C -1.23; Y -1.43; Q -0.98; K -1.11; D -1.31; A -0.52; W 0.05; V -0.49
